Test results taken from article PMC7318626.

Biological target: Neonatal Fc receptor (FcRn), soluble form (UniProt P55899)
Assay: mass photometry (single-molecule counting of species by mass)
Conditions: not stated (in the SI)

Chain of UniProt P55899 (P55899 whole entry): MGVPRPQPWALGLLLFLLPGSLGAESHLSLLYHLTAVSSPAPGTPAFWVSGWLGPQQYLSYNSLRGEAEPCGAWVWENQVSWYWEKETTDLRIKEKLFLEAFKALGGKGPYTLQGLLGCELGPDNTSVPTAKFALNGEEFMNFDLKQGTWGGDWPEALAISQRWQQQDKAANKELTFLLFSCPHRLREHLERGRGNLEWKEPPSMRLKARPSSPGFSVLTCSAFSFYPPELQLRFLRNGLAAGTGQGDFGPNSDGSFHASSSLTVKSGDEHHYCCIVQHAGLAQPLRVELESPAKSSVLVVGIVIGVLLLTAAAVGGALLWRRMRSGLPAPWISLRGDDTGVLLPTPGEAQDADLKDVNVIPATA

Substance | Kd (pH 5, pH 5, 5.5, 6 and 7) [nM] | Kd (pH 5.5, pH 5, 5.5, 6 and 7) [nM] | Kd (pH 6, pH 5, 5.5, 6 and 7) [nM] | Kd (pH 7, pH 5, 5.5, 6 and 7) [nM] | Kd (pH 5, pH 5, 5.5 and 6) [nM] | Kd (pH 5.5, pH 5, 5.5 and 6) [nM] | Kd (pH 6, pH 5, 5.5 and 6) [nM]
Trastuzumab (Herceptin), IgG1 monoclonal antibody, called 'IgG' in the article + Neonatal Fc receptor (FcRn), soluble form | 6.6 ± 0.6 | 3.9 ± 1.5 | – | – | – | – | –
Trastuzumab (Herceptin), IgG1 monoclonal antibody, called 'IgG' in the article | 59 ± 8 | 225 ± 20 | >200 | >200 | – | – | –
Neonatal Fc receptor (FcRn), soluble form | 44 ± 9 | 171 ± 19 | – | – | 31 ± 11 | >200 | >200
